In publication doi:10.1101/2024.11.26.625467 one finds stoichiometry N data, which are given here for one substance.

This test deals with KS17 N2 NA (neuraminidase head of H3N2 A/Kansas/14/2017) (influenza A virus H3N2 A/Kansas/14/2017). Put plainly: cryo-EM structure.

With “KS17 N2 NA (neuraminidase head of H3N2 A/Kansas/14/2017) (domain or fragment)”, the stoichiometry N was 4.
